Experimental data published in paper PMC11532494 (Nature Communications, 2024).
Where “and” joins values, the source holds several entries; their conditions need not be identical. Equal values may be shown once. Read-outs that look alike come from different tables or passages of the source. No end group written: not given here. *: point of attachment. AMC = Cc1cc(=O)oc2cc(N*)ccc12

Legend:
VsHdaH (1b) = format: biochemical, Vibrio sp.; conditions: VKDAC
KpHdaH (1b) = KpHdaH (1b) (Klebsiella pneumoniae, UniProt A0A377Z5F6); format: biochemical; conditions: KpHdaH (1b)
BsAcuC (2c) = molecular target: T1, BsAcuC (2c) (Bacillus subtilis, UniProt P39067); experiment: Substrate screening assay (acyl-peptide-AMC); format: biochemical; conditions: BsAcuC (2c); for [AMC]: Transform RFU in [AMC]
T1 construct: made in house; host or cells: E. coli BL21 (DE3)
T1 sequence (P39067 1-387): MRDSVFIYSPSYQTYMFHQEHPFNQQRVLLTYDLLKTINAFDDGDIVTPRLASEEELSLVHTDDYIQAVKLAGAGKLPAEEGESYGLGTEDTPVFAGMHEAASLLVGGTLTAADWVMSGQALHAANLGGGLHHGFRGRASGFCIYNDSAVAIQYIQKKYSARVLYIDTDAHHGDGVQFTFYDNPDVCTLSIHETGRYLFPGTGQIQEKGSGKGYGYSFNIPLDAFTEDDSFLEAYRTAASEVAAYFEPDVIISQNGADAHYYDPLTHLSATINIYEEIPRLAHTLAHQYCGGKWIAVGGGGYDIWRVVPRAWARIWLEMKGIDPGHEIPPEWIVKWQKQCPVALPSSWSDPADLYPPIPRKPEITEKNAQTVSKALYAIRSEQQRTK
Protocol: (§1) Experiments with SIRT2 and SIRT5 were supplemented with NAD^+ (500 µM). Thereafter, a solution of trypsin (25 µL, 5.0 mg/mL; final concentration of 2.5 mg/mL) was added, and the development of the assay was allowed to proceed for 90 min at room temperature before fluorescence analysis. […] To this end, a single category is given to all conversions >48% on the heatmap. […] For the H4-derived peptide LGKbio no positive control was available.

VcHdaH (5b) = format: biochemical, Vibrio cholerae; conditions: VcHdaH (5b); for [AMC]: Transform RFU in [AMC]
PsApaH (4) = PsApaH (4) (Pseudomonas sp. M30-35, UniProt A0A1Y0KY79); format: biochemical; conditions: PsApaH (4)
Protocol: as §1

Controls = experiment: Substrate screening assay (acyl-peptide-AMC), control enzymes; format: biochemical

Substance | Relative Fluorescene Units (RFU) (VsHdaH (1b); Transform RFU*2, Sample 1) | Relative Fluorescene Units (RFU) (VsHdaH (1b); Transform RFU*2, Sample 2) | Relative Fluorescene Units (RFU) (VsHdaH (1b); Sample 1) | Relative Fluorescene Units (RFU) (VsHdaH (1b); Sample 2) | Relative Fluorescene Units (RFU) (KpHdaH (1b); Sample 1) | Relative Fluorescene Units (RFU) (KpHdaH (1b); Sample 2) | Relative Fluorescene Units (RFU) (KpHdaH (1b); Transform RFU*2, Sample 1) | Relative Fluorescene Units (RFU) (KpHdaH (1b); Transform RFU*2, Sample 2) | Relative Fluorescene Units (RFU) (BsAcuC (2c); Sample 1) | Relative Fluorescene Units (RFU) (BsAcuC (2c); Sample 2) | [AMC] (BsAcuC (2c); Sample 1) [nM] | [AMC] (BsAcuC (2c); Sample 2) [nM] | Relative Fluorescene Units (RFU) (BsAcuC (2c); Transform RFU*2, Sample 1) | Relative Fluorescene Units (RFU) (BsAcuC (2c); Transform RFU*2, Sample 2) | [AMC] (VcHdaH (5b); Sample 1) [nM] | [AMC] (VcHdaH (5b); Sample 2) [nM] | Relative Fluorescene Units (RFU) (VcHdaH (5b); Transform RFU*2, Sample 1) | Relative Fluorescene Units (RFU) (VcHdaH (5b); Transform RFU*2, Sample 2) | Relative Fluorescene Units (RFU) (VcHdaH (5b); Sample 1) | Relative Fluorescene Units (RFU) (VcHdaH (5b); Sample 2) | further results
QPKKhex (QPKK-{AMC}; not fully specified (residue 4); printed as QPKKhex; also: hexanoyl-lysine (which Lys not given here); UniProt P04637 317-320, looked up, fragment) | 72 | 194 | 36 | 97 | 170 | 14 | 340 | 28 | 1720 | 1255 | 1679.69 | 1225.59 | 3440 | 2510 | -22.46 | 121.09 | -46 | 248 | -23 | 124 | Relative Fluorescene Units (RFU) (PsApaH (4); Sample 1): 128 RFU; Relative Fluorescene Units (RFU) (PsApaH (4); Sample 2): 61 RFU; Relative Fluorescene Units (RFU) (PsApaH (4); Transform RFU*2, Sample 1): 256 RFU; Relative Fluorescene Units (RFU) (PsApaH (4); Transform RFU*2, Sample 2): 122 RFU; [AMC] (Controls): 3.01563 µM and 4.0166 µM
QPKKlau (QPKK-{AMC}; not fully specified (residue 4); printed as QPKKlau; also: lauroyl-lysine (which Lys not given here); UniProt P04637 317-320, looked up, fragment) | -308 | 12 | -154 | 6 | -177 | -96 | -354 | -192 | 1004 | 695 | 980.47 | 678.71 | 2008 | 1390 | -112.30 | -47.85 | -230 | -98 | -115 | -49 | Relative Fluorescene Units (RFU) (PsApaH (4); Sample 1): 196 RFU; Relative Fluorescene Units (RFU) (PsApaH (4); Sample 2): 66 RFU; Relative Fluorescene Units (RFU) (PsApaH (4); Transform RFU*2, Sample 1): 392 RFU; Relative Fluorescene Units (RFU) (PsApaH (4); Transform RFU*2, Sample 2): 132 RFU; [AMC] (Controls): 10.32715 µM and 12.34863 µM
QPKKpal (QPKK-{AMC}; not fully specified (residue 4); printed as QPKKpal; also: palmitoyl-lysine (which Lys not given here); UniProt P04637 317-320, looked up, fragment) | 82 | -38 | 41 | -19 | 9 | -4 | 18 | -8 | 139 | 15 | 135.74 | 14.65 | 278 | 30 | 22.46 | -39.06 | 46 | -80 | 23 | -40 | Relative Fluorescene Units (RFU) (PsApaH (4); Sample 1): 40 RFU; Relative Fluorescene Units (RFU) (PsApaH (4); Sample 2): 14 RFU; Relative Fluorescene Units (RFU) (PsApaH (4); Transform RFU*2, Sample 1): 80 RFU; Relative Fluorescene Units (RFU) (PsApaH (4); Transform RFU*2, Sample 2): 28 RFU; [AMC] (Controls): 8.07129 µM and 10.51367 µM
